From the DeepSol protein solubility set

assay: soluble on expression in E. coli; label from the status in PepcDB or PDB records

Row | Sequence | soluble on expression in E. coli
1 | MSGELSNRFQGGKAFGLLKARQERRLAEINREFLCDQKYSDEENLPEKLTAFKEKYMEFDLNNEGEIDLMSLKRMMEKLGVPKTHLEMKKMISEVTGGVSDTISYRDFVNMMLGKRSAVLKLVMMFEGKANESSPKPVGPPPERDIASLP | soluble
2 | MGHHHHHHSHMVNVKGSTKKSNLDRFLHCITPLVPPQSLPKTEIRTLNRLWHPWERQKVEFFRLSDLWDCYDEWSAYGASVPIHVTNGESLVQYYVPYLSAIQIFTSHSSLIRLREESEDGECEGRDPFSDSGSDESVSEEGLENNTLLHPSDRLGYLYLQYFERSAPYTRVPLMDKINELAQRYPGLMSLRSVDLSPASWMSVAWYPIYHIPMGRTIKDLSTCFLTYHTLSSSFQDMEPEENGGDKERVRREGEDITLLPFGMATYKMQGDVWLSQDHDDQERLASLYSVADSWLKQLRVQHHDFNYFCNMSMTHRG | soluble
3 | MGSDKIHHHHHHMTGEKVHLTGAKETLLMTLYGKALESRLPHSLLGDHFADEAVRKIDYDFSRLKVDENLGIGLAIRAKTLDVRVEDFLARNPGAIVLHLGCGLDTRVFRVDPPPGVDWFDADYPQVIELRRKLYPPRDHYHLIASSVTEPGWLAEVPRNRPAMVVAEGLTPYLPADEGLRLVSRLVSHLAGGELMFDAYSRFGLTLLRLSPTIKATGAEVHWAIDDPHELELAVPKLRFVEDISAYMPEHAARMGWSAKLFVRLWKHIPALRKVGRLLRYRF | not soluble
4 | MIVLGLEGTAHTISCGIIDESRILAMESSMYRPKTGGIRPLDAAVHHSEVIDTVISRALEKAKISIHDIDLIGFSMGPGLAPSLRVTATAARTISVLTGKPIIGVNHPLGHIEIGRRVTGAIDPVMLYVSGGNTQVIAHVNGRYRVLGETLDIGIGNMIDKFAREAGIPFPGGPEIEKLAMKGTKLLDLPYSVKGMDTAFSGILTAALQYLKTGQAIEDISYSIQETAFAMLVEVLERALYVSGKDEILMAGGVALNRRLRDMVTNMAREAGIRSYLTDREYCMDNGIMIAQAALLMYKSGVRMSVEETAVNPRFRIDEVDAPWITDASRKDYGKAGAESRIEEVSFHGRPAIRKVRISKSYRNSDLDKKIRYERMRNEFTILRKLKEAGVNSPVVYDFDPFSMSITMQKIPGRMMSAELNEGRTDFLNELGIMIAKMHRAGIAHGDLTVNNIIVNDSVFIIDPSMGKVNAEIEDMAVDIYALEDSIKGLGLDSGSVIGQMLKSYRNNFNLADDVLETVSAIRRRHRYV | soluble
5 | MEKKVEAILEFDKIKKQLAEFASSSLGEQAIYELAPATDFQVVQKAQLETEEGAKIIRLRGSAPITGLTDVFAHLKRLEIGGDLNGLEIYQIGSNLRVSRQMKNFMNDLLEIGVEIPLLGALSDELLVLKDVEEDIAISIDESGKILDTASEALSSIRRTLRRTEDRVREKLESYLRDRNASKMLSDAVITIRNDRYVIPVKQEYKGHYGGIVHDQSASGQTLFIEPQSVVDLNNERKALQAKEKQEIERILAEISASLAGWINEIHHNTFILGRFDFILAKARFGKALKAVTPHLSDTGIVHLIAARHPLLDAEKVVANDIYLGEDFSTIVITGPNTGGKTITLKTLGLLTLMAQSGLQIPAQEDSTIAVFENVFADIGDEQSIEQSLSTFSSHMTNIVSILEKVNHKSLILYDELGAGTDPQEGAALAIAILDASHKKGASVVATTHYPELKAYGYNRAHATNASVEFNVETLSPTYKLLIGVPGRSNAFDISRRLGLSESIITEARSLVDTESADLNDMISSLEEKRNLAEREYEEARELARGADALLKDLQKEITNYYQQKDKLLEQANEKAAGIVEKAETEAEEIIHELRTMQLNGAAGIKEHELIDAKTRLGKAKPKTINKAIPKAPKQKPHVFQAGDNVRVLSLGQKGTLLNKISDKEWNVQIGIIKMKIKTTDLEYIEPEKPKKQRIITSVHSSDSPAKSELDLRGERYEDAIQKVDKYLDEALLAGYPQVAIIHGKGTGALRTGVTEYLKNHRMVKSIRFGAAAEGGNGVTIVEFKLEHHHHHH | not soluble
6 | SLLLRLCRWLRLLGYPTVAAHEVVDPTKVEDEDEVLVEFCREHDALLITRDRQLARRARAVLITADSVPEQIAEVLEFLGDEAFLDPDESRCPECNARVRRVTAENPGPFEVTWECPECRRKYWVGGHWRDMEETIDRVKKALRRVQRGHLRG | not soluble
7 | MSLKIAVVQFPGSNCERETMLAVQRAGMTPVEFLWNDSSQKLREMDGYIIIGGFSYEDRSRAGIIAALDPVMKEIKLQSELGKPVLGICNGAQILVETGLVPGLKNYQIGMALTENKRIQDGKILGTGFYNSWIHMRTGDRVRQNAFTRYLSKDSVLSIPAAHAEGRFVMPVKLLQEIEEEGLNAFQYCDAQGNRDDNFPVNPNGSLRNIAAIINKAGNVMAIMPHPERTFAGDPIFHSMKEYIKEKKTFKQQTLSYQPEPVKIIPYDKKDNAHELIVKLIITDNAALTVQNTLRQLGIPVTVNRMMYWHVDTNFPETIEKIKQTGVLYNDRKEYLVTSEHIFSSAAKAFLVKSKDDMIGQQKLQMLRDHFSIDGVDAIHHGVLWMFSSENVKIQELAESILATNIIFNPNAHICYEYQCPEGHHHHHH | soluble
8 | MAMRHLSRSRDVTKRSTKKYIEEPLYNRLFKDGGTEVKVRQQLNQFLKGTKHVFKWEVGDTIKKLRNRGLYYPALKLSEVMEERGMNKTVSDQAIHLDLVAKAREITAGENYFVDLPETSKTELTYGSLLNCYCKELLTEKAEGLLNKMKELNITPSSMSYNSLMTLYTKTGETEKVPAMIQELKAENVMPDSYTYNVWMRALAATNDISGVERVIEEMNRDGRVAPDWTTYSNMASIYVDAGLSQKAEKALQELEMKNTQRDFTAYQFLITLYGRLGKLTEVYRIWRSLRLAIPKTSNVAYLNMIQVLVKLNDLPGAETLFKEWQANCSTYDIRIVNVLIGAYAQEGLIQKANELKEKAPRRGGKLNAKTWEIFMDYYVKSGDMARALECMSKAVSIGKGDGGKWLPSPETVRALMSYFEQKKDVNGAENLLEILKNGTDNIGAEIFEPLIRTYAAAGKSHPAMRRRLKMENVEVNEATKKLLDEVSQDV | soluble
9 | MGHHHHHHSHMEGSETGSREGSDVACTEGICNHDEHGDDSCVHHCEDKEDDGDSCVECWANSEENDTKGKNKKKKKKSKILKCDEHIQKLGSCITDPGNRETSGNTMHTVFHRDKTKDTHPESCCSSEKGGQPLPWFEHRKNVPQFAEPTETLFGPDSGKGAKSLVELLDESECTSDEEIFISQDEIQSFMANNQSFYSNREQYRQHLKEKFNKYCRLNDHKRPICSGWLTTAGAN | not soluble
10 | MRNETLVSIIVPVYNSAQYLRKCIDSILAQSYTEFELLLINDGSEDHSGLICDDYAQSDNRIQVFHQENAGVSAARNLGLEKHTGEHFLFIDSDDYIQERYLEELMKYASCDFVQCSCCSEPVGNDYLFVDGNFEGSDEIKQCLLKYIYPEFTVPFGRLYKSSIQRKNKLFFDTYLYSGEDTLWVSQYLLCVHSLRVSSYIGYIYVHHVGEHLSQKSISYEHLEYTLHKLLISYSDLEKRYDFDLTGVRYSVIIYFFHRYIVYIANRNYTEIRKELEKSCANPLIKGVFYDKKYLLKGKKMKLFNWLVLHDMYSVLALYVKRWKRYL | not soluble
11 | FIKLPEFKLNYHNKSYRQYGRGFALQNTNFRPGSSGTLMLNNQKQIAGIYFGVLDFGEDVSLMSNIGVGQILRVPQKNNTRNR | not soluble
12 | MAEVVNISKSASFSKQEKEFSDFQKSKESNEKILNKESNRFTLHPIMYPEVWNFYKKAEASFWTAEEIDLSSDLKDFEKLNVNEKHFIKHVLAFFAASDGIVLENLASKFLREVEIIEAKKFYSFQIAVENIHSETYSLLIDNYIKDEKERLNLFHAIENIPAIKNKALWAAKWINDTNSFAERIVANACVEGILFSGSFCAIFWFKKQNKLHGLTFSNELISRDEGLHTDFNCLIYSLLENKLPENVVQNIVKEAVEVERSFICESLPCDLIGMNSRLMSQYIEFVADRLLECLGCSKVFHSKNPFNWMDLISLQGKTNFFEKRVADYQKSGVMAQRKEQVFSLNTDF | soluble
13 | MTYVFGPVSSKRLGQSLGVDLLPSKSCTWNCIYCQLGRTTAFVTERREFFPKEEILSEILETVASGKPIDWITFVGSGETTLYKGLDWLIAEVKKISKIPVAVITNGSLLSDPEVRRELLEADAVLPSLNAGSPELFERIDRPAPGFTFEKHVEGLRLFRQEYRGKLWVEVMLIRGVNDSEEALKEMAAVLAEIRPDMIHLVMPTRPAPESFVGIPDEELIQRAVFVLSSSAPVLHPAKGEMNLGSVGNLLDTVAGIASRHPVQERELEAALGKLFDGDAAKIRETMGELLASGRFEKVRQGSELYWIVKSA | not soluble
